The target of this assay is human CD40 on cells (human) (UniProt P25942). The assay can be described thus: cell-based or functional assay.
human CD40 on cells (human), sequence (P25942 21-277 limits assumed): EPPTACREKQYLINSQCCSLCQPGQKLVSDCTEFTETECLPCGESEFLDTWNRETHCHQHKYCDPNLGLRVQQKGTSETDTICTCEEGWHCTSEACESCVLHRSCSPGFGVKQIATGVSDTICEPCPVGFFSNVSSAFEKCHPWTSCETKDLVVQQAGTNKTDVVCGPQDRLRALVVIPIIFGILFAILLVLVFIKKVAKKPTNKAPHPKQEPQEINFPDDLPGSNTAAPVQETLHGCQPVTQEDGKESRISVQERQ

The substance “Hexameric CD40L (from UniProt P29965 116-261) (ligand)” gave an EC50, CD83 expression, MoDC maturation assay of 0.24 nM and an EC50, IL-8 release, MoDC maturation assay of 0.33 nM.

(Values after patent US20240279350A1.)
